Legend:
SNF2H = SNF2H (UniProt O60264); assay: HA immunoprecipitation and mass spectrometry; conditions: PC3 cells; average of three independent experiments; parent: est. 35; read off a plot
DHX9 = DHX9 (UniProt Q08211); assay: HA immunoprecipitation and mass spectrometry; conditions: PC3 cells; average of three independent experiments; parent: est. 32; read off a plot
Chain of UniProt Q08211 (Q08211 whole entry): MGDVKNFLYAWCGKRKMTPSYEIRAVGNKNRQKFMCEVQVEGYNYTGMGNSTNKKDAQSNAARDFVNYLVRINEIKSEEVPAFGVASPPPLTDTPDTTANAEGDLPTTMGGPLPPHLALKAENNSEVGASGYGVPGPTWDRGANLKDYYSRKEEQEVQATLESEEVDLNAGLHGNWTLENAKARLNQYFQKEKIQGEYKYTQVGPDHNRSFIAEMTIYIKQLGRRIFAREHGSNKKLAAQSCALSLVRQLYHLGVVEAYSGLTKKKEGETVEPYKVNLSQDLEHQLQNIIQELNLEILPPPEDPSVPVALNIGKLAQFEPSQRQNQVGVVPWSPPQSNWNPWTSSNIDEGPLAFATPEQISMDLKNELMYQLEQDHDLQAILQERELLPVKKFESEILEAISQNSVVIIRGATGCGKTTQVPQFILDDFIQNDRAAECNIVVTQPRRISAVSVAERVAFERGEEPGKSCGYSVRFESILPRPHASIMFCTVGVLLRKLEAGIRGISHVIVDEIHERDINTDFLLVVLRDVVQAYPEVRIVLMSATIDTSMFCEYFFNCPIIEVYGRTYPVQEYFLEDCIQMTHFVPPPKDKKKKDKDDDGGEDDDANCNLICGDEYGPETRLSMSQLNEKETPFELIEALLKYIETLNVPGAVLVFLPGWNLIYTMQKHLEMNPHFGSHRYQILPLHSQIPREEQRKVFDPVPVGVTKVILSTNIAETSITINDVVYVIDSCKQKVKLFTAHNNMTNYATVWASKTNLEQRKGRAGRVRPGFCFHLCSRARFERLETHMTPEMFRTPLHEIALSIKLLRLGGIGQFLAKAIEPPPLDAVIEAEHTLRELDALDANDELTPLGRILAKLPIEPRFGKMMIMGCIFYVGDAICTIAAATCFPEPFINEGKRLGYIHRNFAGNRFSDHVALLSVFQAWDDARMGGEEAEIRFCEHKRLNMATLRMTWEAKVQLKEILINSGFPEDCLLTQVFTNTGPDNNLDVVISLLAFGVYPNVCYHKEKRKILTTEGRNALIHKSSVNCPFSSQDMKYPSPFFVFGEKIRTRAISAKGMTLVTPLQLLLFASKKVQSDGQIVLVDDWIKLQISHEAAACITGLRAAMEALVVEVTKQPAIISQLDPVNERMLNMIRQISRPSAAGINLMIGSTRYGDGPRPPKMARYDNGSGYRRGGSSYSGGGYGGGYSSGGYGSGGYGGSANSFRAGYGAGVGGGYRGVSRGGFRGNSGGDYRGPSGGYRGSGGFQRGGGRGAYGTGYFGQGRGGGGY

Chain of UniProt O60264 (O60264 whole entry): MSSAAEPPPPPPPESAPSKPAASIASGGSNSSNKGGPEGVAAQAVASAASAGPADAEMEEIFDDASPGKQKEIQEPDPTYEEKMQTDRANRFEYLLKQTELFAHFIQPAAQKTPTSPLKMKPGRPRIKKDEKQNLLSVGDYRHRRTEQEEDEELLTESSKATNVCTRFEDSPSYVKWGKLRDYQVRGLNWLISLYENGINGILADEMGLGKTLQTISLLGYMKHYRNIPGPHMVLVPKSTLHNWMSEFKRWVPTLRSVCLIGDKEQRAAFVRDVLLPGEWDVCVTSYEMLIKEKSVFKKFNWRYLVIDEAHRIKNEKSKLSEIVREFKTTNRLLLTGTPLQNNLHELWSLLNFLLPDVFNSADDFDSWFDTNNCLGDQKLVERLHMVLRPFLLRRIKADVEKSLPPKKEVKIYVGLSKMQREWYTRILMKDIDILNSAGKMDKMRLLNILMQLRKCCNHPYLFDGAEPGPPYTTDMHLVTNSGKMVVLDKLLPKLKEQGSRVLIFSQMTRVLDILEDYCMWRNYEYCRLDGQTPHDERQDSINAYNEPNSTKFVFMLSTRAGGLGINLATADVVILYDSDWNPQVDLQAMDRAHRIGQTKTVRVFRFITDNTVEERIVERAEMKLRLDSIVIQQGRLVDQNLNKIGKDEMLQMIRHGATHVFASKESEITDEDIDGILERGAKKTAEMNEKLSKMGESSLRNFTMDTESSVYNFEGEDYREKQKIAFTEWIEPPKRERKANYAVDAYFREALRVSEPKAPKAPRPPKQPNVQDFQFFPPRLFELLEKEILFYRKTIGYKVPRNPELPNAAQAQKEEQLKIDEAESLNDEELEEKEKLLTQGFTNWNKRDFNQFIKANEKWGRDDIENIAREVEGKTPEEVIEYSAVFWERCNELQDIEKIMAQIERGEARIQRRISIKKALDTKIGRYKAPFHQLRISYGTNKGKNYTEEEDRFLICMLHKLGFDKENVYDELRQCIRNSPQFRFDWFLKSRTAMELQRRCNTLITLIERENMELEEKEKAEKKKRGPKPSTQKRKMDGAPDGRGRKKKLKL

HA-FLAG-tagged mouse WT BAZ2A (from UniProt Q91YE5) W531G; Y532A
response (peptides number) (SNF2H): 32 | response (peptides number) (DHX9): 36
